# Measured values reported in the nanobody polyreactivity screen of Harvey et al. (2022).
# Assay: yeast display, Sf9 membrane polyspecificity reagent, FACS + sequencing; frameworks hold sequencing errors
# Procedure, shortened: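 Galactose induction of a Saccharomyces cerevisiae BJ5465 synthetic nanobody display library ran 36–48 hours. The cells were then stained for 1 hour at 4 °C with 10% biotinylated, detergent-solubilized Sf9 membrane reagent, pulled down on streptavidin microbeads and FACS-sorted into low and high (top ~1%) gates on expression and reagent-binding fluorescence. Labels for polyreactivity follow the gate of origin.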
row,Sequence,polyreactivity (PSR sort gate)
1,QDQLVESGGGIVQAGGSLRLSCAASGSTFDFNAMGWYRQAPGKERELVASISWETGGTYADSVKGRFTISRDNGKNTVYLQMKSLNPEDTAVYYCAARPDYFIFEYWGQGTQVTVSS,low polyreactivity
2,QVQLVESGGGLVQAGGSLRLSCAASGFTFNDYAMGRSRQAPGKERELVAAIDWSGGRTYYADSVKGRFTISRDYEKNTVYLQMKSLKPEDTAVYYCAAVLYSRLYWYSLDYWGQGTQVTVSS,low polyreactivity
3,QVQLVESGGGLVQAGGSLRLSCAASGRTFYRYVMGWYRQAPGKERALVAAITWSGGSTYYADSVKGRFTISRDNAKNTVYLQMNSLKPEDTAVYYCAKGLYDASRRYYYWGQGTQVTVSS,high polyreactivity
4,QDQLVESGGGLVQAGGSLRLSCAASGSTFQTYAMGWYRQAPGKEREVVAAISFNGGSTYYADSVKGRFTISRDNAKNTVYLQMNSLKPEDTAVYSCAVEYTWASALYDGRHDYWGQGTQVTVSS,high polyreactivity
5,QVQLVESGGGLVQAGGSLRLSCAASGSIFGWYTMGWYRQAPGKERELVAAITWRGGTTYYADSVKGRFTISRDNAKNTVYLQMNSLKPEDTAVYYCATTRYPRSYQEFGYWGQGTQVTVSS,high polyreactivity
6,QVQLVESGGCLVQAGGSLRLSGAASGRTQVPYAMGWSRQAHGNERELVASISSGGSTNYADSVKGRFTISRDNAKNTVYLQMNSLKPEDTAVYYCNAEPIGSEVDYWGQGTQVTVAS,low polyreactivity
7,QVQLVESGGGLVQAGGSLRLSCAASGLIFKYNAMGWYRQAPGKERELVAAISTSGGSTYYADSVKGRFTISRDNAKNTVYLQMNSLKPEDTAVYYCNAVAGRPFRYYYWGQGTQVTVSS,high polyreactivity
8,QVQLVESGGGLVQAGGSLRISSAASGFIFSLNAMGWYRQAPGKERELVASITRSGTRTYYADSVKGRFTISRDNAKKTDFLQRNSLKPEATAVDYCAARTKRSYEYQAFYYWGQGTQVTVSS,high polyreactivity
9,QVQLVESGGGLVQAGGSLRLTCAASGSIFPGYAMGWYRQAPGKDRELVATITASGGSTYYADSVKGRFTISRDNAKNTVFLQMISLKPEDTAVYDCAKDRYWYFRRRGQYDYWGQGTQVTVSS,high polyreactivity
10,QVQLVESGGGLVQAGGSLRLSCPASGRIFGTYPMGWSRQEPGKESELVARITRGSSTYYADSVKGRFTISRDNAKNTVYLQMNSLKPEDTAVYYCAAVGWGYSYRARYGYWGQGTQVTVSS,high polyreactivity
11,QVQLVESGGGLVQAGGSLRLSCAASGRTFGKYAMGWYSQAPGKERELVAAISSGGTTYYADSVKGRFTISRDNAKNTVYLQMNSVIPEDTAVYYCAADPRYPYNYWGQGTQVTVSS,low polyreactivity
12,QVQLVESGGGLVQAGVSLRLSCAASGSILTINAMGLYRQAPGKERELVPAITSGGGSTYYADSVKGRFTISRDNAKNTVYLQMNSLKPEDTAVYYCNKVFVLPYKFVAWFDYWGQGTQVTVSS,low polyreactivity
13,QVQLVESGGGLVQAGGSLRLSCAASGSTFAKNAMGWYRQAPGKERQLVAAITYSGGSTYYADSVKGRFTISRDNAKNTVYLQMNSLKPEDTAVYYCAADVWWSYYRYDYWGQGTQVTVSS,low polyreactivity
14,QVQLVESGGGLVQAGGSLRLSCAASGITFEPYAMGWYRQAPGKEREFVADITWSGGSTYYADSVKGRFTISRDNAKNTVYLQMNSLKPEDTAVYYCAADGWTSYWSDYWGQGTQVTVAS,low polyreactivity
15,HVRLQESGGGLVQAGGSLRQSCAACGAISPYYDMGWYRLAPGKEREFVASIAHGGTTYYADSVKGRFTTSRDNAKNTVYLQMKSMKTEDTAVYYCAVDYDVWHSHIYRGQGTQVTVSS,high polyreactivity
16,QVQLVESGGGIVQAGGSLRLSCAASGRIFSGNGMGWYRQAPGKEREFVAAIRFSSGSTYYADSVKGRFTISRDNAKNTVYLQMNSLKPEDTAVYYCARPSIPSRYDYWGQGTQVTVSS,high polyreactivity
17,QVQLVESGGALVQAGGSLRLSSAASVSIFTINAMGWYRQAPGKERELVAAISWSGAHTYYADSVKGRFTISRDNAKNTVYVQMNSLKPEDTAVYYCATGYNYLDRNTGYVHRFDYWGQGTQVTVSS,low polyreactivity
18,QVQLVESGGGLVQAGGSLRLSCAASGSTFRYYAMGWYRQAPGKERELVAAINYGGGRTYYADSVKGRFTISRDNAKNTVYLQMNSLKPEDTAVYYCATGYYYYRFYTYGYWGQGTQVTVSS,high polyreactivity
19,QVQLVESGGGLVQAGGSLRLSCAASGFISFGNGMGWYRQAPGKERELVAAITRRGGSTYYADSVKGLFTISRDNAKNTVYLQMNSLKPEDTAVYYCDARYLGSTSTNRPPMDYWGQGTQVTVSS,high polyreactivity
20,QVQLVESGGGLVQAGGSLRLSCAASGRILYQYDMGWYRQAPGKERELVASISRSGGRTYYADSVKGRFTISRDNAKNTVYLQMNSLNPEDTAVYYCAAELTYFGYPIDFDSWGQGTQVSVSS,low polyreactivity
21,QDQLGESGGGLVQAGGSLRLSGAASGSTFSRNAMGWYRQAPGKERELVAAISRSGGSTHYADSVKGRFTISRDNAKNTVYLQMNSQKPEDTAVYYCAARVPRGDLPGYHYAYYYWGQGTQVTVSS,high polyreactivity
22,QVQLVESGGGLVQAGGSLRLSCAASGSTFGRYAMGWYRQAPGKERELVAAISKSGGSTYYADSVKGRFTISRDNEKNTVYLQMNSLNPEDTAVYYCAATTTRYSYEYWGQGTQVTVSS,low polyreactivity
